Experimental data: article PMC3961337, “FRET-Based System for Probing Protein-Protein Interactions between σ^R and RsrA from Streptomyces Coelicolor in Response to the Redox Environment” (PLoS ONE, 2014)

Key:
Details in all cases: both partners purified
[1] = biological target: T1, sigR-yfp-pET28a (+) protein (SYP) (S. coelicolor M145, UniProt Q7AKG9 1-227, biotinylated for the biolayer interferometry only); test: FRET or BRET; FRET efficiency titration: increasing SYP (or YFP) from 0.1 nM to 0.85 μM added to a determined concentration of RCP in binding buffer with 2.5 mM DTT; single-site binding curve
T1 construct: ECF sigma factor σR (SigR) of Streptomyces coelicolor, amplified from the M145 genome with primers sigRC and sigRD; the primers encode M-G-T-G-T-D-A at the start (after the NcoI site) and K-G-S-G-S before the HindIII site (worked out from the primers); σR, then K-L (HindIII site) and G-G-S, then YFP from M-V-S-K-G to M-D-E-L-Y-K (worked out from primers yfpC and yfpD), cloned NcoI/HindIII/XhoI in …

[2] = biological target: T2, SYP with the histidine tag removed by thrombin (zinc function assay) (S. coelicolor M145, UniProt Q7AKG9 1-227); test: FRET or BRET; zinc function assay with ZnSO4: His tags removed by thrombin; increasing ZnSO4 added to the mixture (Fig. 4A) and 500 μM ZnSO4 for the spectra (Fig. 4B); FRET ratio emission 528 nm/478 nm
T2 construct: ECF sigma factor σR (SigR) of Streptomyces coelicolor, amplified from the M145 genome with primers sigRC and sigRD; the primers encode M-G-T-G-T-D-A at the start (after the NcoI site) and K-G-S-G-S before the HindIII site (worked out from the primers); Same construct as m3 after thrombin; not shown: YFP (after a glycine-glycine-serine linker), C-terminal, kept; His tag, N-terminal, cleaved

[3] = biological target: T2, SYP with the histidine tag removed by …; test: FRET or BRET; zinc function assay, Zn-sample (500 μM ZnSO4) after removal of DTT and addition of 1 mM diamide; FRET ratio emission 528 nm/478 nm
[4] = biological target: T2, SYP with the histidine tag removed by …; test: FRET or BRET; zinc function assay, apo-sample: His tags removed by thrombin, zinc removed with 5 mM EDTA; SYP and RCP at the same concentration, no ZnSO4; FRET ratio emission 528 nm/478 nm

T2 sequence (Q7AKG9 whole entry): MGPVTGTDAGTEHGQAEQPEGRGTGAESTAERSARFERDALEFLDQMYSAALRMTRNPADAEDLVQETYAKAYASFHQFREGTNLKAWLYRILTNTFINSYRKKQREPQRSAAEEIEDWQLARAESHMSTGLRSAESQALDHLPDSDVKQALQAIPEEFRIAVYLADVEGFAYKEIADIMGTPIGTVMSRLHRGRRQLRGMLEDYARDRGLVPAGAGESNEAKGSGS
T1 sequence (Q7AKG9 whole entry): as above

| Binder | Kd [1] [nM] | FRET ratio (emission 528 nm/478 nm), with 500 μM ZnSO4 [2] | FRET ratio (emission 528 nm/478 nm), Zn-sample with diamide [3] | FRET ratio (emission 528 nm/478 nm), no ZnSO4 added [4] |
| --- | --- | --- | --- | --- |
| rsrA-cfp-pET28a (+) protein (RCP) (natural protein, S. coelicolor M145, UniProt Q7AKG8 1-105, looked up, anti-sigma factor RsrA of Streptomyces coelicolor, amplified from the M145 genome with primers rsrAA and rsrAB; RsrA, then E-F (EcoRI site) and G-G-S, then CFP from M-V-S-K-G to M-D-E-L-Y-K (worked out from primers cfpA and cfpB), cloned NcoI/EcoRI/HindIII in pET28a (+); source: E. coli BL21 (DE3), purified (Ni-NTA); also co-expressed with SYP in E. coli BL21 (DE3) cells, unpurified; not shown: …) MSCGEPHETDCSEILDHLYEFLDKEMPDSDCVKFEHHFEECSPCLEKYGLEQAVKKLVKRCCGQDDVPGDLRAKVMGRLDLIRSGQSVPEHDVAAAPSSSAPQES | 81 ± 29 | – | – | – |
| RCP with the histidine tag removed by thrombin (zinc function assay) (natural protein, S. coelicolor M145, UniProt Q7AKG8 1-105, looked up, anti-sigma factor RsrA of Streptomyces coelicolor, amplified from the M145 genome with primers rsrAA and rsrAB; Same construct as m4 after thrombin; Zinc removed with EDTA (apo-RCP); Zn-RCP is the same protein with 500 uM ZnSO4 added; also called apo-RCP; Zn-RCP; not shown: CFP (after a glycine-glycine-serine linker), C-terminal, kept; His tag, N-terminal, cleaved) MSCGEPHETDCSEILDHLYEFLDKEMPDSDCVKFEHHFEECSPCLEKYGLEQAVKKLVKRCCGQDDVPGDLRAKVMGRLDLIRSGQSVPEHDVAAAPSSSAPQES | – | 2.8 | 2.2 | 2.3 |
